Laboratory results published in a protein production outcome set (Wang et al. 2014).

Assay: label from the status in PepcDB records
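Also: failed if final PepcDB status was selected cloned or expressed and not failed if soluble or beyond.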

Sequence: MQTEIITQLVLIFPEILIALGGITLLLFGVYSKASSSLTVTGLAIALFVATIVIIIIFPKSGLFQTNALIIDSFGRYMKILTLIGALFALIMSVNFTSTQKFDIFEFPVLVLLATLGMMLMISAGNMLSLYMGLELQSLALYVLAAINRNNIKSSEAGIKYFALGALSSGLLLYGISLVYGFTGQIGFREIAVALKGENLPLGVIFGIVFILAGLAFKISAVPFHMWTPDVYEGAPTPITAFFAGAPKVAAMALIVRIIVMTFIPLENTDGSMPAWQQILVFMAIASMILGAFAAIGQSNIKRLMAYSSISHMGYALVGLASGDMLGIKSVILYMTIYLSMTIGSFAFILGMRSSDGNVEDIYDLSGLVKTNPFMAITMTIQLFSLASIPPMAGFFGKWYTFSAAVHAGLTPLAIVGMIASVVGAFYYLRLIKIMWFDDAKAHFIVLSNEFRFCLSFSAFFILSYTLFGIWFADLAERAATALF
- protein production: failed

Sequence: MAKPIRVLLYYKYVPIENAEQFAADHLAFCKSIGLKGRILVADEGINGTVSGEYETTQKYMDYVHSLPGMEDLWFKIDEEEEQAFKKMFVRYKKEIVHLGLEDNNFDSDINPLETTGAYLSPKEFKDALLDEDTVVLDTRNDYEYDLGHFRGAIRPDIRNFRELPQWVRDHKEEFMDKRVVVYCTGGVRCEKFSGWLVREGYKDVGQLHGGIVTYGKDPEVQGELWDGKLYVFDERIAVDVNHVDPIVVGKDWFDGTPCERYVNCGNPFCNRRILTSEENEDKYLRGCSHECRVHPRNRYVSENDLSQEEVVERLAAIGESLDVTPA
- protein production: failed

Sequence: MTAETPSLTSPQAQRILRLYHLYRLTIGVVLVLLISSSLETELLQLANPNLFRSGCWLYLVFNILVVVLLERPSRQAQLFGLAMTDAIMLSGLFYAAGGPSSGIGNLLIASVAISNVLLRGRIGLLIAAVSAIGIIYLTFYISFGTPSVSNDYVQAGSLGALCFAAALLVQALTARLQVSEGLAEQRAADVDSLEELNALILQRMRTGIVVLDARRQVVLANQGALTLLGHERLVGQVIDAYSPQLVERLRQWLINPIMVPRSITTSSIGPVLQPSFAALNRGDQRQTLIFLEDLSQIAHQAQQLKLAALGRLTAGIAHEIRNPLGAVSHAAQLLNESEDLSAPDRRLGQIIHDQSQRIDRVIENVLQLSRRREAQPELLDLKVWLENFVSDFRSSAAADQSIHVQISSGMLTTRMDAGQLTQIITNLVQNGLRYSRRNHPSAQVWLNLHHDRESDLPILEVLDDGPGVSEQHLSKIFEPFFTTESKGTGLGLYLSRELCESNQAHLEYIPRPHDGGSCLRITFAHPFKTS
- protein production: failed

Sequence: MPKIIEAIYENGVFKPLQKVDLKEGERIKLRIEEGILDVIKKYQGKFKLTEKDIEKFLEERRLEHHHHHH
- protein production: not failed

Sequence: MSDLTKVFIAPEEIVNFLKKNMQLKEVYQKILFQRLILQVAEARGITVTTEEIEAEANRQRREKRLEKAADTMAWLADQLASPEDWEMGIRDRLLSQKLANFLFADKVEAFFIQNQLEFEQVSLYQIIVDSEKLAQEIYYQIEDEEISFYEAAYLYDVDAVRRQRCGYEGKVYRFSLPVNVATVIFRTSPKQLISPLQTEQGYHLFMVEEFIPAELTGERYQEILNNMFNQWLITELNKILN
- protein production: failed

Sequence: MEFQLWGAKIVIEPKPDLRYLYLEITNRCNLKCEMCFKQYWEDKEGDMDWDLFLKILDDAKEFPELKMIYFGGIGEPSVHPRFMDMVREVKRRGFRLGMSTNGVLLEDKILEEFVKLGVDVVYFSMDAIPTPSNIVTLGHITSKVVESRIKKLVELKKRYKTEKPTIGVEVVATKENYKQLPEMAIYLRNLGVDSMLISNLIPMTKEHSKAIVYDGSVDMTPIVNELHQIAEGGPFMRIAEFKLRTNRYCDFIENNVTVVRWDGEVFPCYRFLHTYPEVIFGREKKVIAHSFGNVKEKSLKDIWMSEEYVRFRFLVKASAYPSCIDCPLNTSCSFALDTTQDCWGTSPSCGDCLWSRGIVLCPIPFEYMGKFL
- protein production: failed

Sequence: MYKDEMIQLHQFLVYVLKYLENGYDIKDECEEYFSLNISPHHIHRTKAEHKYAIFVLSSAISEILARKEGNNLPPNVVNGLSELARRSRKEVVKMEARLEAK
- protein production: failed

Sequence: VRTLWISDVHLGTRDCQAEHLSAFLKRYQADKVYLVGDIIDGWKLRGGMYWPQAHTNVIRRLLTMSKRGTEVIYVTGNHDEFLRRYSKLILGNIQLVDEAEHVTADGRRFLVIHGDQFDVITRYHRWLAFLGDSAYEFTLTLNRWLNHWRAKYGYGYWSLSAYLKHKVKSAVNFISDFEEAIAHECVKRGLDGVVCGHIHHAEIRQVGGVEYLNCGDWVESCTALIEHLDGNIELFRLA
- protein production: failed

Sequence: YWGPLDVGEAKSLPGMEDPKLVYIPSIAPSNMVLYRGDKYSELDGKILVGALKLTHINVVGINDGKLTESQRLLEKLGERIRDITISPDGYIYFSTDSGKIFRLTEQ
- protein production: failed

Sequence: MAFLDKIKSAVIAEWHTHKILPSLTAAQAILESGWGKYAPHNALFGIKADSSWTGKSFNTKTQEEYQPGIVTDIVDRFRAYDSWEDSIADHGQFLVDNPRYKAVIGEADYKKACHAIKDAGYATASGYAELLIQLIEENNLQEWDAEAIKNKEEQMISSQCREVIEFFINLANAGVGVDKDSFAGWQCADVPCYAAKHWFGVDLWGNAIDLLDSAAAVGWEVHRMPTDANPRTGAFFVQSVPCHQFGHTGIVIEDSDGYTMRTVEQNIDGNPDALYVGAPARFNTRDFTGVLGWFYPPYQGDIVTQPVSTEPQNSDTIVETPKTGTFTLDVAEINIRRWPSLASEVVGSYKQGDTVSFDSEGYANGYYWISYVGGLGMRNYLAIGQTDKDGNRISIWGKLN
- protein production: failed

Sequence: MKKEKIHLEYLLNATSKNILWSAISTPTGLEDWFADKVVSDDKTVTFCWGKTEQRQAGIVAIRAYSFIRFHWLDDENERDYFEIKMSYNELTGDYVLEITDFSEADEADDLKELWDSQVSKLRRTCGFLEHHHHHH
- protein production: not failed

Sequence: MAASSLATQPAMKLAPDDLDSITATTLGHYQQVAEDFREGTRDHDVSQNIDALLRHIQGSAPFTVLDFGCGPGRDLQAFTRLGHVAIGLDGCERFAQMAREDSGCEVWQQDFLKLDLPAERFDGIFANAVLFHIPRQELPRVLKQLHASLKDGGVLFSSNPRGDNQEGWNGPRYGAYHDLAAWQALLTDAGFVELEHYYRPAGLPREQQPWLASVWRKA
- protein production: failed

Sequence: LGNAMNIPAPIRIEAFDNSNIMGTNPVSAMVVFIDGRPAKNEYRKYKIKTVQGPDDYASMREVIYRRYSRVLKEGLPFPDLILIDGGKGQVDVAKDVLANQLGVDIPVAGLAKNDKHKTSELLFGPNLEVVPLERNSQEFFLLQRIQDEVHRFAI
- protein production: not failed

Sequence: MQFIYSIIGILLVLGIVYAISFNRKSVSLSLIGKALIVQFIIALILVRIPLGQQVVSVVSTGVTKVINCGQAGLNFVFGSLADSGAKTGFIFAIQTLGNIVFLSALVSLLYYVGILGFVVKWIGKGVGKIMKSSEVESFVAVANMFLGQTDSPILVSKYLGRMTDSEIMVVLVSGMGSMSVSILGGYIALGIPMEYLLIASTMVPIGSILIAKILLPQTEPVQKIDDIKMDNKGNNANVIDAIAEGASTGAQMAFSIGASLIAFVGLVSLINMMLSGLGIRLEQIFSYVFAPFGFLMGFDHKNILLEGNLLGSKLILNEFVSFQQLGDLIKSLDYRTALVATISLCGFANLSSLGICVSGIAVLCPEKRGTLARLVFRAMIGGIAVSMLSAFIVGIVTLF
- protein production: failed

Sequence: MPTPAPSADSTAERRHREKDTPLHRAARRGDADAVRELLARGAEIDALDDKGRTPYRLALDAGHPEIARWLAAAGADRHRSAAGTPGESEKRPRHPPSRLSSKDGIDGYPGWPALTVAAWRGHASTVETLLARGADVAARAPDGHTPLTRAAWNGHAGIVKILLAHGAEADVATPDGRTALMWAAREGHGEVVAVLAAAGARLDATDGDGNTALSWAAQRGKATTVRVLCSLGAATGVARKDGRTPIMLAALGGHPESVEVLLAASADPNATDADGHTALWHAVDGGHSGIVEILLAHGASFDRDRAPGHDALARAAWKGDEKTAGLLLAYGARVDAPSGDGNTALAVAAGRGHAGVIRLLLRKGANPDRRNRRNMTALMLAAQAGHSETVAALLEAGADPTLRNRHRHTAVSLARAGGHEDCVKILEKHRVGRRTLLGFLW
- protein production: failed

Sequence: MKFKTNKLSLNLVLASSLLAASIPAFAVTGDTDQPIHIESDQQSLDMQGNVVTFTGNVIVTQGTIKINADKVVVTRPGGEQGKEVIDGYGKPATFYQMQDNGKPVEGHASQMHYELAKDFVVLTGNAYLQQVDSNIKGDKITYLVKEQKMQAFSDKGKRVTTVLVPSQLQDKNNKGQTPAQKKGN
- protein production: not failed

Sequence: MGYLKNHWWKRWIRRRGCKLAGGPASVGKRTTLVLEERVELGHLRIVPPRLEIGAYSYVRSGTDLSLVASIGRFCSIGSDCFIGQEKHTHPSDWVSSHPFQHTGTALRYEPALSYAEIGHDVWIGHSAMVMEGVKVGTGAIIATRAVVTRDVPPYAIVAGTPAQVIRYRHPPEIIEGLLASRWWELDSAFLTGLPLDRPREFLAALEAREAPRAAYRRMTITRQGCRLDLEHHHHHH
- protein production: failed

Sequence: MKRAYKIEINPTDDQKSKIHQTIGVSRFIYNFYIAHNKEIYEKEGKFVSGMDFSKWLNNEYIPNNQDKKWIKEVSSKATKQAIMNGDKAFKDFFKKAKGFPRFKKKKNQDVKAYFPKNNKTDWTLERHRVKIPTLGWVRLKEFGYIPKNSVVKSGTVSQKADRYYVSILVEETYIKISNPNNEGLGIDLGIKEFAICSNGNKFKNINKTSTVKKIEKKLKREQRKLSRKYESLKIRNKNIKEGRATRQNIQKQVVKVQRLHQRLANIRTDYINKTVFSIVKQKPSYITIEDLAVSNMMKNKHLSKAISSQKFFEFKTKLMSKCKQNNIELRIVDRFYPSSKTCSNCGKIKKDLKLSDRIYKCDCGFTIDRDLNASINLKNAKEYKIA
- protein production: failed

Sequence: MKILLIGASGTLGSAVKERLEKKAEVITAGRHSGDVTVDITNIDSIKKMYEQVGKVDAIVSATGSATFSPLTELTPEKNAVTISSKLGGQINLVLLGIDSLNDKGSFTLTTGIMMEDPIVQGASAAMANGAVTAFAKSAAIEMPRGIRINTVSPNVLEESWDKLEPFFEGFLPVPAAKVARAFEKSVFGAQTGESYQVY
- protein production: not failed

Sequence: TFYSVRMRASMNGSHEDGGKHISGGERLIPFHEMKHTVNALLEKGLSHSRGKPDFMQIQFEEVHESIKTIQPLPVHTNEVSCPEEGQKLARLLLEKEGVSRDVIEKAYEQIPEWSDVRGAVLFDIHTGKRMDQTKEKGVRVSRMDWPDANFEKWALHSHVPAHSRIKEALALASKVSRHPAVVAELCWSDDPDYITGYVAGKKMGYQRITAMKEYGTEEGCRVFFIDGSNDVNTYIHDLEKQPILIE
- protein production: not failed

Sequence: MDDLIRLLEEMGIPFAYDHFAEGESPDPPFICYLLPQSDNFSADGKVYLKVSSVNIELYTDCKDLSVEQKLEAVLDTHGIFYDKTKVWIESEKLYEVLYSFEMEVLEHHHHHH
- protein production: failed
